Test results from the domain aggregation screens of Martell et al. (2025).

experiment: soluble fraction after stress (log2 fold change); higher = more stays soluble; pooled small domains, quantitative proteomics; settings: stress: 50 degC
How it was run: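 Pooled custom libraries of small protein domains were measured in a high-throughput format, with quantitative proteomics as the read-out. Each library was stressed at 50°C. Aggregation propensity is given as the base-two logarithm of the fold change in how much of each protein stays soluble after the stress. Higher values mean a larger share of the protein remains in solution.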

Sequence	soluble fraction (log2)
HMDRKEEIIIVTLKLASQIGLSNVSMEQIAKQVGIKKPSLYNHFKSKDEIIDAMYEYLREKSKN	-0.869
HMRLTIAQLSEKTGVPERTIRYYIDRGLVPSAHGERRGAWYDTVHLEPLLRIQQWREAGLSLEAIADLLR	-1.19
HMPGTPADQVAELQTKVGTETKTGDMITQDDVKLLQTALDPLAKMNDRIQAAKILESKGIVTSDGNLRT	0.124
HMPAPMISIQLNGEPRNVQPGISIAALVREIGLEPAKVAVERNREIVPRSTLGDVLIEAGDQLEIVHFVG	0.159
HMTPAPHESLTDREMEVLKLLAQGLSNQEIADKLFIGVKTVKYHITNIFSKLGVEDRTQAAIYAHKQGLA	0.0163
HMSAGYTYQNYQQDLKSGNVQNIHIYLSEEMYSGNVKVIYKNNKSVTFTVTDVTIAEAEARQVGISPIIYE	-0.1
HMERKMKNNISDQTTYDTDKILNFNGKGYLNGLVIPNNYQIKEEGYYVFRQVALDGREQILYFTIQDLS	-1.96
HMDYLSEFITDKVVRADGYSIRKGELSNEFKQWFITNVGTKNPKPKEIHDYMDRKFGKNKNGIWKNVKIKL	-0.38
HMIIVMASSKKEDVAHVVHKIEELGYKAHVIVGVERTVVAAVGDERGKERLISLEALPHVEKVFPILK	-0.055
HMVEQVEISILPGEYSDTISQKLLDAGLIDDKAAFSKYINDTNVDNLIQPGTFTVPKGASYEEVAKILT	0.212
HMNVESMVGKQGKVVVEIDNISAKGMIKVDGMEWTARSVDGEIIPKDSLVAVVSVEGVKAMVRKAE	0.163
HMSVKVFRDQILLNNDSDKMLQLSFSNLFGQKVLETSISPGKSAISTGNLPPGIYFITTSPATGVMRVII	-1.12
HMNEVRINTAHIEHKYLGEVKVLDIQEMRNARGRDADPLAFLAIRFWSPRGVLVRVKDSRDATPYWLIS	0.3
HMEKIYLISDAAKQVNVEAHVLRYWEEELDIPAKRNELGHRYYTQEDIETFRKVKELKAQGIQLKGIKNIL	0.123
HMRDPFDALSARERAVASLVQRGLRNKEVASELGLTEGTVKVHLHKVFDKLGIRGRTELILLAQER	-0.79
HMKAQVKSVLDDIPGIGQTRRKALMRYFKSLEKIREASVEELKEADAMNERAAQSVYAFFHK	-0.471
HMLNPLLLPFVEAEDFQVKLEILAAMEGKVGEEDLDILYEALDLPKMTGNIEEQIHSIKQYIEMRK	-1.15
HMGKPPNNRIHRAKRDYALNLVKEHYPDFGPTLAAEKLAEHHGFTVSRETLRKWMIEDGIWLSRKQRR	-0.123
HMRSPVDALSNRELQVLQMVGRGLSSRQVAEALHLSVKTVEAHRQRIKGKLGLRTGAQLVQFAANWVTG	-1.27
HMSAVNLNDDEKAVYKSIKSGIRSLDELSLRTGMKIYELMAITVSLEMKGLVTKSPDGTLDAT	0.147
HMNNGYSINEIAKLMKMTLKVVRRYVASGELKTTKTNNTYSISEEAFNEFKKYIEEGGDAKHAQEVADTFK	-0.229
HMTLDVALSKEIKYMLKEEHYLPGDKLPSERKLAELFHVQRLTVRGALNLLLQDKTIISKPRSGYYVAPKR	-3.1
HMAKSDLNYLDFKSKLEAGEIAKASVIRNEDTFKVTLQNGEVYNVTSPDYEDFRKELLEAGVDIQVSK	0.114
HMEVALEVPELRGLSMKQATNTLMASGFEVQKVGSGTIYAQFPLPGERLRTGYAVTIRGKTRDLG	-0.258
HMHLEKGEVVVPDLKGLTMRQVGELLGKLNLRYSFSGTGLAVKQFPESGQIVNQGDIIEVIF	-0.138

Sequence	soluble fraction (log2)
HMDASVTIEQVERMVQANVSDDVIISQLQGRGAAQNLSTDDIINLTQKGISAEVIKAYQSAG	0.0658
HMAPEPFIVQITASSLNVRKGPGTSYAVAQTVSKGQVFTIVQQQGGWGKLKSGAGWISLKYTAR	-1.36
HMGADRLVGMTAIVTATIDPNDTDRKGRVQVEGEVWSALSDGRLIITEGSKVRITEMHGTRVRVEAI	-0.0351
HMGGLIEPLSARELEVLELMSLGKTNQEIARDLVVASGTIKAHAASIYRKLDAANRTEAVTHARELGIL	-0.0084
HMENTFNENLRRIRKEKKITQEQLAEFVGVSPQAVSKWEMNSFPDASLLPKIAEKLEVSIDELFGLK	0.000882
HMLAKYEIIKQDIIQMIEEKKFKPGDKIYSEGELKKIYNVSSTTVVRALQDLVLSGYLIRKQGEGTYVRK	-1.23
HMAPGASEVPDLTSLPAREALLRLTKLGLLPEMEGTGRLVRQQPAAGTRVPKGSKVHLVFEPG	0.0613
HMSDIHARIAAALAALTSPEKIHDLVVDDDGKVSFTFHLTREDPATLVRDARKAVQAVDGVRDVKVNVVDP	0.172
HMDGVLVYKEGMTVADMATGLGKTIAQVVMKLMQLGIMANQNQSVDRETVELVALDFGYELKD	-1.76
HMRTAFPQLTERELEILDLIAAGRNNAQIASALYLAPKTVRNNVSNILAKLQATDRAEAIIRARDAGLGG	-0.0599
HMTVVPNIVNQPEAAGTNLLISSNLKPGNRAVQYSDTVKAGDIISQSPEPGAQATLGGKVDYVISQGPAPT	0.165
HMTRRGPLTEGDRVQVRDPKGRFHQVILVRGGRFQSNRGGFNHDDVIGRPDGQVIITDEGRQFQIL	0.512
HMKTLSKEDIGFLSDEAVGEMRKAVANGEMLELRALIDQVGEKNPIVAEKLLTLVKQYDYENLNRVLE	0.0931
HMSTDSTQLLGFNKTGEELPIYKEANEENKFAEIPQNVYVKNFGQNGEFTKIKYLDQEGYVKTAGLK	≥ 0.62
HMLPDPIYEAFMMASDLGIVVRNGPQYAYPDKETGEVLYKALGREKFLQLMKDNDGLLTSIETEIRSM	-1.18
HMDIRLMPGTVLTREYQGIEHRVTVAQDGQYEFEGRRYPSLSMIAREITGTRWSGPLFFGVK	-0.657
HMQDNLKKYMDKLSQRDAELIVYKYLWNMSEKEISEMFHIKQEQVHVYVGRAKKRLFKIIKKEME	-0.025
HMAITLEQFLSVNPHIRNNLYGNAVELVKDKDFSVLSDKLKASSKWANEPSLYKILSHYDEIIS	0.063
HMKEILLITGKGLHSGQDDVYKSAQLSKLRYSVPEFIKSNLEISQLILSVETPLQKDGGDGALLIK	0.13
HMKNHSTFKSVLSNIEFPINERISGHAIQNPILGLIKADHPNFSSDQYIAISELNFYREKYISNYLLTEI	-3.35
HMLDFLVSKYESELLADLLWSLGVVAVEEREATGDLVTLRTSLGDDHSFTRELVQEKFPDVIVSTAL	-1.47
HMRIVSGRESMLGRTVVVADWAGERGHVVVDGERWNAVASTPLAAGRRARIVGIDGLTLSVSPDDKP	0.216
HMTKVIEFLVSDEEHGVRADKAFVSHNQKLSRSYFKKLILNGNLYINNKVNLDPSYKLIKGSTVRIILPE	-2.07
HMNIAESIRKYRKASGLTQEEMAKRLGVTTPAVSKWENGITNPDIALLAPIARLFHISVDTLLSYR	-0.403
HMHLTEAPLIKITYFEADQKKSGGQYITIINHLKKINEYENLLVLENGVKINIDDIYELESV	-0.132

Sequence	soluble fraction (log2)
HMPTQTEELRRRIVADVNAGEPGAKLGSERELAERYGTSRSSLRQVLAALQEAGLIDRVIGRSGGIFISH	-0.0372
HMSIGLEELVGSHGEAITDLRPAGQVSIAARRISAVSEGDFINKGDSVEVLSVEGYRVMVRKLET	0.00441
HMNAVITTQKAKQIALAHAGLSEADVNYVKAELENDDGVQVYDIEFYSKNIEYDYDINAVTGEIMSFDHDI	-0.47
HMFAATGTVNTEGSSLRLRAEASTSSSVLKQLSHGTQVDVLSGLVDGWYQVSYKGTTGYVSGEYLTVTE	-0.451
HMSVTPLLDATEKDKTKYRDLWLVAVVKNGVNYARKYKFGYVYAWLYRHDRDWLLQVNNQHKIPNIT	0.127
HMLLTHPKRVFTYELIMELVWNEDYTFYSKKAVSNHMSNLRKKLKVTPDALDYIKNIVGVGYKFEA	-0.759
HMANNPISMIKIRQILRLHIQGRSKLQIAAQTGISRNTLKKYLKEFEASKLTYDEISELSDKDLEDLFIK	-2.02
HMVQVDNELTEFSVQSITRGIDALGEVTIRVTAPDGGVYTGRGADNDIIVSSTKAYLNALNRLLNDK	-0.229
HMSTDDILSSITALRLASVQFQLGQFDPALDSLKLVKEQAWSGAKNILAGDIQLAKGDKEAAKASYQQAQQ	-0.38
HMFEKIDINFADIHQLKGLPLNSEQINSIIEYRNQNGFIENIYDLKNVNGISIDKVHELKSYIFIIDV	-2.42
HMSPDALSNLPIGSEIKFTLWDGTEKRLVKHPAAYQFSRPFWMNLNEYTYVPVNRIPKNYEVIRL	-0.0581
HMRDLTARQQQILALIRQHIADTGFPPTRAEIAAQLGFRSPNAAEEHLKALARKGVIELASGASRGIRLK	-0.16
HMESYNIVEQVLTKKILSKGNTLAKLSNEFDGLVMLVIRGDEFIIPNGETLLFEKDILVINNGP	-1.72
HMNNKSDLLFNHLRQRIATMENGTIFPSVRQLMTEYNVSQSTVSTAIRSLKELGLLEALSRQGMVVRKE	-0.476
HMDNFDVVLTSPGDQKVQVIKAVRSITGLGLKEAKDLVDGAPNTVKEGVKKLDAEEMLKQLTEAGATGEL	0.296
HMSSAMDMISRDVRNADSISISTTTYSKKIDLYNFDRNGDIEELHSYSAKNDLGILYNDEPI	-0.276
HMVSLRQQVYDYLRSQMNQGELRPGSAINLGEMSSRFGISRTPLREALLQLETEGFVTIYPRKGIIVN	-0.793
HMFAAIFADDSGFTTRSKRFGPYVEEIAADWQAVKQLSDEDAKQALVPLVKKIELALSTLQQFVSSV	-0.244
HMKGYIGESKARNIALKKAPGASITKFEFDKDDGIAVYEVELRKGIYEYELKINAVTGAIIEFEKDIE	-1.46
HMSLGPNAYGKPATALNILRETVMGKELFDHAFKTYSKRWMFKHPSPEDFFRTMEDASAVDLDWFWR	-0.239
HMTNVDELIGKEAVVVKEIRPYTTGEVKLDGKVWRAMSESKQVYKVDEIVTVLRIEGVTMII	-0.419
HMERQAEAWTNRASALISLGRDEEALEAADRAIELDPRLSKAWIDRSTALSNLGRNDEANEAIQMAMFL	0.108
HMNAAYDEELDFIFSLSEKGKWEEAEAEIGLLLQKHPEDATLQRIGEWVTTQKILLRQQAVEDRIRS	-0.0763
HMAMLSKREAEILKLTAKGHSSTDIAQRLTISVNTVEFHRRRIMQKLNAANVAEAVGKAAELGLFF	-0.438
HMQDSIYYAQYRINIRNMPSSEGMVISRASVGEALEVLDWQEQWSKVRKQSGVEGYVASRLLTK	-1.24
